*1 amine or outer side, *2 acyl side, *3 side chain or, on linkers, in order; H or OH if unused. Side-chain parts run from the residue outwards. [ ]: non-standard residue; d: D form. The star is where a group is joined. C18 diacid = O=C(O)CCCCCCCCCCCCCCCCC(=O)*; γGlu = O=C(O)[C@H](CCC(=O)[*:2])N[*:1]; Desaminohistidyl = O=C(CCc1c[nH]cn1)*; Ac4c = NC1(C(=O)O)CCC1; AEEA = NCCOCCOCC(=O)O; Aib = CC(C)(N)C(=O)O
B1: N^ε22-[(4S)-4-carboxy-4-[[(4S)-4-carboxy-4-[[2-[2-[2-[[2-[2-[2-[[(4S)-4-carboxy-4-(17-carboxyheptadecanoylamino)butanoyl]amino]ethoxy]ethoxy]acetyl]amino]ethoxy … (peptide)
peptide: [Desaminohistidyl][Ac4c]HGTFTSDVSKYLEK([γGlu-γGlu-AEEA-AEEA-γGlu-C18 diacid])RAAREFIAWLLKT-NH2
SMILES: CC[C@H](C)[C@H](NC(=O)[C@H](Cc1ccccc1)NC(=O)[C@H](CCC(=O)O)NC(=O)[C@H](CCCNC(=N)N)NC(=O)[C@H](C)NC(=O)[C@H](C)NC(=O)[C@H](CCCNC(=N)N)NC(=O)[C@H](CCCCNC(=O)CC[C@H](NC(=O)CC[C@H](NC(=O)COCCOCCNC(=O)COCCOCCNC(=O)CC[C@H](NC(=O)CCCCCCCCCCCCCCCCC(=O)O)C(=O)O)C(=O)O)C(=O)O)NC(=O)[C@H](CCC(=O)O)NC(=O)[C@H](CC(C)C)NC(=O)[C@H](Cc1ccc(O)cc1)NC(=O)[C@H](CCCCN)NC(=O)[C@H](CO)NC(=O)[C@@H](NC(=O)[C@H](CC(=O)O)NC(=O)[C@H](CO)NC(=O)[C@@H](NC(=O)[C@H](Cc1ccccc1)NC(=O)[C@@H](NC(=O)CNC(=O)[C@H](Cc1c[nH]cn1)NC(=O)C1(NC(=O)CCc2c[nH]cn2)CCC1)[C@@H](C)O)[C@@H](C)O)C(C)C)C(=O)N[C@@H](C)C(=O)N[C@@H](Cc1c[nH]c2ccccc12)C(=O)N[C@@H](CC(C)C)C(=O)N[C@@H](CC(C)C)C(=O)N[C@@H](CCCCN)C(=O)N[C@H](C(N)=O)[C@@H](C)O
B2: N^ε22-[(4S)-4-carboxy-4-[[(4S)-4-carboxy-4-[[2-[2-[2-[[2-[2-[2-[[(4S)-4-carboxy-4-(17-carboxyheptadecanoylamino)butanoyl]amino]ethoxy]ethoxy]acetyl]amino]ethoxy … (peptide)
peptide: [Desaminohistidyl][Ac4c]HGTFTSDVSKYLEK([γGlu-γGlu-AEEA-AEEA-γGlu-C18 diacid])QAAREFIAWLLKT-NH2
SMILES: CC[C@H](C)[C@H](NC(=O)[C@H](Cc1ccccc1)NC(=O)[C@H](CCC(=O)O)NC(=O)[C@H](CCCNC(=N)N)NC(=O)[C@H](C)NC(=O)[C@H](C)NC(=O)[C@H](CCC(N)=O)NC(=O)[C@H](CCCCNC(=O)CC[C@H](NC(=O)CC[C@H](NC(=O)COCCOCCNC(=O)COCCOCCNC(=O)CC[C@H](NC(=O)CCCCCCCCCCCCCCCCC(=O)O)C(=O)O)C(=O)O)C(=O)O)NC(=O)[C@H](CCC(=O)O)NC(=O)[C@H](CC(C)C)NC(=O)[C@H](Cc1ccc(O)cc1)NC(=O)[C@H](CCCCN)NC(=O)[C@H](CO)NC(=O)[C@@H](NC(=O)[C@H](CC(=O)O)NC(=O)[C@H](CO)NC(=O)[C@@H](NC(=O)[C@H](Cc1ccccc1)NC(=O)[C@@H](NC(=O)CNC(=O)[C@H](Cc1c[nH]cn1)NC(=O)C1(NC(=O)CCc2c[nH]cn2)CCC1)[C@@H](C)O)[C@@H](C)O)C(C)C)C(=O)N[C@@H](C)C(=O)N[C@@H](Cc1c[nH]c2ccccc12)C(=O)N[C@@H](CC(C)C)C(=O)N[C@@H](CC(C)C)C(=O)N[C@@H](CCCCN)C(=O)N[C@H](C(N)=O)[C@@H](C)O
B3: N^ε23-[2-[2-[2-[[2-[2-[2-[[(4S)-4-carboxy-4-(17-carboxyheptadecanoylamino)butanoyl]amino]ethoxy]ethoxy]acetyl]amino]ethoxy]ethoxy]acetyl]-[Imp7,Aib8,His9,Lys18, … (peptide)
peptide: [Desaminohistidyl][Aib]HGTFTSDVSKYLEGK([AEEA-AEEA-γGlu-C18 diacid])AAREFIAWLLKT-NH2
SMILES: CC[C@H](C)[C@H](NC(=O)[C@H](Cc1ccccc1)NC(=O)[C@H](CCC(=O)O)NC(=O)[C@H](CCCNC(=N)N)NC(=O)[C@H](C)NC(=O)[C@H](C)NC(=O)[C@H](CCCCNC(=O)COCCOCCNC(=O)COCCOCCNC(=O)CC[C@H](NC(=O)CCCCCCCCCCCCCCCCC(=O)O)C(=O)O)NC(=O)CNC(=O)[C@H](CCC(=O)O)NC(=O)[C@H](CC(C)C)NC(=O)[C@H](Cc1ccc(O)cc1)NC(=O)[C@H](CCCCN)NC(=O)[C@H](CO)NC(=O)[C@@H](NC(=O)[C@H](CC(=O)O)NC(=O)[C@H](CO)NC(=O)[C@@H](NC(=O)[C@H](Cc1ccccc1)NC(=O)[C@@H](NC(=O)CNC(=O)[C@H](Cc1c[nH]cn1)NC(=O)C(C)(C)NC(=O)CCc1c[nH]cn1)[C@@H](C)O)[C@@H](C)O)C(C)C)C(=O)N[C@@H](C)C(=O)N[C@@H](Cc1c[nH]c2ccccc12)C(=O)N[C@@H](CC(C)C)C(=O)N[C@@H](CC(C)C)C(=O)N[C@@H](CCCCN)C(=O)N[C@H](C(N)=O)[C@@H](C)O

These binders were tested against T1, human GLP-1 receptor (human, UniProt P43220 24-463) (assay: SPA displacement of [125I]GLP-1(7-36)NH2 from hGLP-1R BHK membranes).
T1 construct: whole, on cells; reporter assay on whole cells
Method: The GLP-1 receptor binding of each derivatives were determined with competitive binding, displacing [¹²⁵I]GLP-1 bound to GLP-1 receptors expressed in cell membranes associated with wheat germ agglutinin (WGA) scintillation proximity assay (SPA) beads. Each derivative was added in a series of concentrations to isolated membranes comprising the human GLP-1 receptor and displacement of the labelled radioligand was monitored. The receptor binding was reported as the concentration at which half of the labelled ligand is displaced from the receptor, the IC⁵⁰ value.
1. For the receptor binding assay 50 μl of the assay buffer was added to each well of an assay plate. [0588] 2. Test compounds were serially diluted to give the following concentrations: 8×10EE-7 M, 8×10EE-8 M, 8×10EE-9 M, 8×10EE-10 M, 8×10EE-11 M, 8×10EE-12 M and 8×10EE-13 M. Twenty-five μl were added to appropriate wells in the assay plate. [0589] 3. Cell membrane aliquots were thawed and diluted to their working concentration. Fifty μl were added to each well in the assay plate. [0590] 4. WGA SPA beads were suspended in assay buffer at 20 mg/ml. The suspension was diluted to 10 mg/ml in assay buffer just prior to addition to the assay plate. Fifty μl were added to each well in the assay plate. [0591] 5. […] A 25 μl aliquot was reserved for measuring total counts/well. [0592] 6. The assay plate was incubated for 2 h at 30° C. [0593] 7. The assay plate was centrifuged for 10 min. [0594] 8. The assay plate was read in a Perkin Elmer TopCount NXT instrument.

IC50 | Binder
0.2 nM | B1
0.2 nM | B2
1.9 nM | B3

These binders were tested against T2, human glucagon receptor (human, UniProt P47871 26-477) (assay: SPA displacement of [125I]-glucagon from human glucagon receptor BHK membranes).
T2 construct: whole, on cells; reporter assay on whole cells
T2 sequence (P47871 26-477): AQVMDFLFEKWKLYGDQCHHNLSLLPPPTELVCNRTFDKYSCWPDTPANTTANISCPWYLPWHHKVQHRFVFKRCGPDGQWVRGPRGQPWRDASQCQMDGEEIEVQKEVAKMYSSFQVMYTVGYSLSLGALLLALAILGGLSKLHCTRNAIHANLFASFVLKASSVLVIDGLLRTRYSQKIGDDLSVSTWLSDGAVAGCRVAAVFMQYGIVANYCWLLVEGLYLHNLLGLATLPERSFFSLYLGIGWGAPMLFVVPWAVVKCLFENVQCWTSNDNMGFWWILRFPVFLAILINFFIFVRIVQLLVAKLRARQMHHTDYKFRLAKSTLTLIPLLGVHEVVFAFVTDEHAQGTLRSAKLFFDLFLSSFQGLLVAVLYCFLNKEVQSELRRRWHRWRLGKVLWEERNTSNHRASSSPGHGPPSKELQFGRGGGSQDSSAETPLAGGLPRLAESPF
Method: 1. For the receptor binding assay 50 μl of the assay buffer was added to each well of an assay plate. [0603] 2. Test compounds were serially diluted to give the following concentrations: 8×10EE-7 M, 8×10EE-8 M, 8×10EE-9 M, 8×10EE-10 M, 8×10EE-11 M, 8×10EE-12 M and 8×10EE-13 M. Twenty-five μl were added to appropriate wells in the assay plate. [0604] 3. Cell membrane aliquots were thawed and diluted to their working concentration. Fifty μl were added to each well in the assay plate. [0605] 4. WGA SPA beads were suspended in assay buffer at 20 mg/ml. The suspension was diluted to 10 mg/ml in assay buffer just prior to addition to the assay plate. Fifty μl were added to each well in the assay plate. [0606] 5. […] A 25 μl aliquot was reserved for measuring total counts/well. […] 6. The assay plate was incubated for 2 h at 25° C. [0608] 7. The assay plate was centrifuged for 10 min at 1500 rpm. [0609] 8. The assay plate was read in a Perkin Elmer TopCount NXT instrument.

IC50 | Binder
14.1 nM | B1
17.9 nM | B2
80.2 nM | B3

— patent US20160102129A1 (Novo Nordisk, published 2016)
